Like-named read-outs stand apart in the source and are kept apart here.
T1: Full length WT Flag-hRXRα (human retinoid X receptor alpha) (human, UniProt P19793 1-462)
T1 sequence (looked up): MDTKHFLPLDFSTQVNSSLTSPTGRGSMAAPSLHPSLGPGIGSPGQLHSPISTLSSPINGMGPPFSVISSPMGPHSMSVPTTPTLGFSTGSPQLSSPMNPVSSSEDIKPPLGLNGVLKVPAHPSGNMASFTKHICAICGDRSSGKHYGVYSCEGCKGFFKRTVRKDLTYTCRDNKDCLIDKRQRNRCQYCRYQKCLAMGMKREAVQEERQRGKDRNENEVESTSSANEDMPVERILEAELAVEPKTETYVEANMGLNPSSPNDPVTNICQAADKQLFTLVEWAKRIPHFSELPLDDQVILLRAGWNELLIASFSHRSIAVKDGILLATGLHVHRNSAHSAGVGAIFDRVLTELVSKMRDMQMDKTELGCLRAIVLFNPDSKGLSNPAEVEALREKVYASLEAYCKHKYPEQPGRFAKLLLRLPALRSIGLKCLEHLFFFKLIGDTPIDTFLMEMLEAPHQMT

T2: RXRα-VDR heterodimer complex (full length His-hVDR with full length Flag-hRXRα) (human, UniProt P11473 1-427; P19793 1-462)
T2 sequence (looked up) 1: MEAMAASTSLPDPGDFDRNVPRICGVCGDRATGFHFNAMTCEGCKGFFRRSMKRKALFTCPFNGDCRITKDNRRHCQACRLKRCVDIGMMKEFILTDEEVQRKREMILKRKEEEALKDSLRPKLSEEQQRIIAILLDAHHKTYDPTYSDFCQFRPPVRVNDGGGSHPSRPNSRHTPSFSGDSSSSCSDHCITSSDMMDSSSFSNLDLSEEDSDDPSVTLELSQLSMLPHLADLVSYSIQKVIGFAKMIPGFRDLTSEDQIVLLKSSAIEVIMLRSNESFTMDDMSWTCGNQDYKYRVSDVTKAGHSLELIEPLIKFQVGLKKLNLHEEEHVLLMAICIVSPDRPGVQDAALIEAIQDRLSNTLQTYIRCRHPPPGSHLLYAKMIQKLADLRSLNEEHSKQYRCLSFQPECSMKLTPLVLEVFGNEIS
T2 sequence (looked up) 2: T1 sequence (looked up)

B1: His-hVDR LBD (residues 118-425, Δ[165-215]) (domain or fragment, human, UniProt P11473 118-425, looked up)
chain: DSLRPKLSEEQQRIIAILLDAHHKTYDPTYSDFCQFRPPVRVNDGGGSVTLELSQLSMLPHLADLVSYSIQKVIGFAKMIPGFRDLTSEDQIVLLKSSAIEVIMLRSNESFTMDDMSWTCGNQDYKYRVSDVTKAGHSLELIEPLIKFQVGLKKLNLHEEEHVLLMAICIVSPDRPGVQDAALIEAIQDRLSNTLQTYIRCRHPPPGSHLLYAKMIQKLADLRSLNEEHSKQYRCLSFQPECSMKLTPLVLEVFGNE
B2: His-hSRC1-RID (627-786) variant 1, receptor interacting domain of human steroid receptor coactivator 1 (domain or fragment, UniProt Q15788-1 627-786, looked up)
chain: SQTSHKLVQLLTTTAEQQLRHADIDTSCKDVLSCTGTSNSASANSSGGSCPSSHSSLTERHKILHRLLQEGSPSDITTLSVEPDKKDSASTSVSVTGQVQGNSSIKLELDASKKKESKDHQLLRYLLDKDEKDLRSTPNLSLDDVKVKVEKKEQMDPCNT
B3: Full length WT His-hVDR (human vitamin D receptor) (receptor, UniProt P11473 1-427, looked up)
chain: T2 sequence (looked up) 1

Tests used:
Assay in all cases: HDX-MS
[1] = molecular target: T1, Full length WT Flag-hRXRα (human …)
[2] = molecular target: T1, Full length WT Flag-hRXRα (human …); remark: listed apart in the source
[3] = molecular target: T2, RXRα-VDR heterodimer complex (full …)
[4] = molecular target: B3

| binding result [1] | binding result [2] | binding result [3] | binding result [4] | Binder |
| --- | --- | --- | --- | --- |
| binds | – | – | – | B1 |
| – | binds | binds | binds | B2 |
| binds | – | – | – | B3 |
